In article PMC10475850:

Tests used:
[1] = biological target: Csp1 (cysteine-rich helical bundle copper-storage protein); test: SEC; analytical size exclusion of the purified protein (Figure S8); conditions not given
[2] = biological target: Recombinant Human EGF (human)
[3] = biological target: Recombinant Human TGF-alpha (human); test: SPR; Biacore X100, multi-cycle kinetics; TGF-α amine-coupled to CM5 chip (100 μg/mL, acetate pH 4.5); binders injected at five concentrations (nanomolar to low micromolar range) 60 s, 60 s dissociation; PBS with 0.05% Tween-20, 25°C, 10 μL/min; global fit
[4] = biological target: Recombinant Human HB-EGF (human); test: SPR; Biacore X100, multi-cycle kinetics; HB-EGF amine-coupled to CM5 chip (20 μg/mL, acetate pH 5.0); binders injected at five concentrations (nanomolar range) 180 s, 180 s dissociation; PBS with 0.05% Tween-20, 25°C, 10 μL/min; global fit
[5] = biological target: Recombinant Human EGF (human); test: SPR; Biacore X100, multi-cycle kinetics; EGF amine-coupled to CM5 chip (100 μg/mL, acetate pH 4.0); binders injected at five concentrations (nanomolar range) 120 s, 180 s dissociation; PBS with 0.05% Tween-20, 25°C, 10 μL/min; global fit

Substance “Csp1 (cysteine-rich helical bundle copper-storage protein) (natural protein)” has a stoichiometry N [1] of 4.
With “human EGFR domain 3 (d3-WT) (domain or fragment)” the IC50 of inhibition of proliferation of A431 cells stimulated with 400 pM EGF (EGF acting on EGFR), d3-WT at 0.032-500 nM, 72 h [2] was 476 nM, the Kd [3] was 2550 nM and the koff [3] was 0.0577 s⁻¹. The kon [3] was 38400 M⁻¹ s⁻¹, the Kd [4] was 370 nM and the koff [4] was 0.0107 s⁻¹. It also gave a kon [4] of 47200 M⁻¹ s⁻¹, a Kd [5] of 56 nM and a koff [5] of 0.0028 s⁻¹. It also gave a kon [5] of 49700 M⁻¹ s⁻¹.
